According to publication PMC7382286, “Extensive sequence and structural evolution of Arginase 2 inhibitory antibodies enabled by an unbiased approach to affinity maturation” (Proceedings of the National Academy of Sciences of the …, 2020):
Numbering of substitutions follows the chain as printed. Values belong to the binder of their own block, whether it stands above or below them.

Experiments:
[1] = target: T1, recombinant human Arginase 2 (human, UniProt P78540); test: SEC; Fab and ARG2 in solution; ratio of Fab to ARG2 upon complex formation; conditions: both partners purified
T1 construct: Arginase 2 (ARG2), human, recombinant; also called ARG2; trimeric ARG2; source: recombinant

[2] = target: the molecule itself; test: crystal structure; ARG2-Fab C0020187 complex purified by SEC, crystallised; space group P 6(5) 2 2, 3.25 Å
[3] = target: T2, biotinylated recombinant human Arginase 2 (Homo sapiens, UniProt P78540, biotin (biotinylated; site not stated)); test: BLI; OctetRED96, 25 °C, PBS with 0.01% BSA and 0.002% Tween 20; biotinylated human ARG2 captured on streptavidin sensors, Fabs titrated as analyte; 1:1 binding model (heterogeneous ligand model for C0020187); conditions: both partners purified
T2 construct: Arginase 2 (ARG2), human, recombinant; Construct, tags and the way of biotinylation are in the SI Appendix; also called ARG2; biotinylated human ARG2; source: recombinant

[4] = target: T1, recombinant human Arginase 2; test: crystal structure; ARG2-Fab C0020187 complex purified by SEC, crystallised; space group P 6(5) 2 2, 3.25 Å; conditions: both partners purified
[5] = target: T1, recombinant human Arginase 2; test: cell-based or functional assay

B1: Fab C0021177 (Fab, V domains shown)
VH: EVQLLESGGGLVQPGGSLRLSCAASGFTFRYEVAAWVRQAPGKGLEWVSAISGPAPKGYYADSVKGRFTISRDNSKNTLYLQMNSLRAEDTAVYYCARLRADLGLYMDLWGRGTLVTVSS
VL: QSELTQPPTASAAPGQKVTISCSGSSSNIGNHYVSWYQQLPGTAPKLLIYDTTVLSSGIPDRFSGSKSGTSATLGITGLQTGDEADYYCGTWDELTSNLVFGGGTKLTVL
notes: VH of C0021177; VL of C0021177; Pool-maturation lead
stoichiometry N [1]: 3 Fab per ARG2 trimer

B2: recombinant human Arginase 2 (enzyme)
chain: VHSVAVIGAPFSQGQKRKGVEHGPAAIREAGLMKRLSSLGCHLKDFGDLSFTPVPKDDLYNNLIVNPRSVGLANQELAEVVSRAVSDGYSCVTLGGDHSLAIGTISGHARHCPDLCVVWVDAHADINTPLTTSSGNLHGQPVSFLLRELQDKVPQLPGFSWIKPCISSASIVYIGLRDVDPPEHFILKNYDIQYFSMRDIDRLGIQKVMERTFDLLIGKRQRPIHLSFDIDAFDPTLAPATGTPVVGGLTYREGMYIAEEIHNTGLLSALDLVEVNPQLATSEEEAKTTANLAVDVIASSFGQTREGGHIVYDQLPTPSSPDESENQARVRI
notes: Arginase 2 (ARG2), human, recombinant; also called ARG2; trimeric ARG2; source: recombinant
stoichiometry N [2]: 3

B3: Fab C0020187 (Fab, V domains shown)
VH: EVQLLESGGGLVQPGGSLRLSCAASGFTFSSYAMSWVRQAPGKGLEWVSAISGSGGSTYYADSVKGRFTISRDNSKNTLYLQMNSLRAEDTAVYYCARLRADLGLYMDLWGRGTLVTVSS
VL: QSVLTQPPSVSAAPGQKVTISCSGSSSNIGNHYVSWYQQLPGTAPKLLIYDNSERPSGIPDRFSGSKSGTSATLGITGLQTGDEADYYCGTWDSSLSALVFGGGTKLTVL
notes: VH of C0020187; Fab heavy-chain constant region; VL of C0020187; Fab light-chain constant region; also called parental antibody; parent Fab C0020187
stoichiometry N [1]: 1 Fab per ARG2 trimer
KD of the initial high-affinity binding site (heterogeneous ligand model) [3]: ~10 nM
stoichiometry N [4]: 3 Fab per ARG2 trimer
inhibition of the enzymatic activity of recombinant human ARG2 (1 µg/mL, ~24 nM; urea measured colorimetrically), IC50 [5]: 0.9 µM

B6: Fab C0021133 (Fab, V domains shown)
VH: B1 VH with E32D, V33H, A34H, A35V, P54S, A55G, P56G, K57S, G58T
VL: B1 VL with E3V, T9S, A10V, I20V
notes: VH of C0021133; Fab heavy-chain constant region; VL of C0021133; Fab light-chain constant region
binding result [3]: binds

More lines, now with the values ahead:

binding result [3]: binds
B4: Fab C0021139 (Fab, V domains shown)
VH: B1 VH with R30Q, E32D, V33Y, A34Q, A35V, P54S, A55G, P56G, K57S, G58T
VL: B3 VL with P56T, S94E, S95L, L96T, A98N
notes: VH of C0021139; Fab heavy-chain constant region; VL of C0021139; Fab light-chain constant region

stoichiometry N [1]: 3 Fab per ARG2 trimer
B5: Fab C0021158 (Fab, V domains shown)
VH: B1 VH with A55I
VL: B3 VL with P56T, S57A, I59V, S94E, S95L, L96T, A98N
notes: VH of C0021158; VL of C0021158; Pool-maturation lead; 18 amino acid changes against C0020187

stoichiometry N [1]: 3 Fab per ARG2 trimer
B7: Fab C0021181 (Fab, V domains shown)
VH: EVQLLESGGGLVRPGGSLRLSCAASEFTFRYDYHVWVRQAPGKGLEWVSAISGSGGSTYYADSVKSRFTISRDNSKNTLYLQMNSLRAEDTAVYYCARLRADLGLYMDLWGRGTLVTVSS
VL: B3 VL with T19A, I20V, N31S, P56T, S94E, S95L, L96T, A98N, K106R
notes: VH of C0021181; VL of C0021181; Pool-maturation lead; 18 amino acid changes against C0020187

binding result [3]: binds
B8: Fab C0021128 (Fab, V domains shown)
VH: B1 VH with R30Q, A55I
VL: B3 VL with S53A, E54I, R55E, P56S, E84G, S95N
notes: VH of C0021128; Fab heavy-chain constant region; VL of C0021128; Fab light-chain constant region
